Assay results reported in the DeepSol protein solubility set.

Assay: soluble on expression in E. coli; label from the status in PepcDB or PDB records
In the case of “IPGKDVAVTAGRVVFQNHLIELIQYEAQTKTVYKEPILILPAWIMKYYILDLSPHNSLVKWLVKQGHTVFIISWRNPDKEDCDLGMDDYYRLGAMAAIDMVSTILPETKINLMGYCLGGTLAMITASMMGRYEDERLNCLTLLAAQGDFSEAGELMLFVNESQVDFLKSMMWEQGYLDTKQMAGSFQMLRAYDLIWSKMVQDYMHGMRRGMIDLTAWNADATRMPYKMHSEYLEKLFLNNDFAEGRYMVEGKSVAAENIQCPIFAVSTKKDHVAPWQSVYKIHLMTEENVTFVLTGGGHN”, the “soluble on expression in E. coli” value is reported as “not soluble”.
With “IPLARTVRCNCIHIDDGPVRMRAIGKLEIIPASLSCPRVEIIATMKKNDEQRCLNPESKTIKNLMKAF” the “soluble on expression in E. coli” value was “soluble”.
For “ISASEDMFEDEDLIPRQNVVITLTHHGYIKRLPISTYRSQKRGGRGIQGMGTNEDDFVQHLFTTNSHHTILFFTNKGKVYRLKGYEIPELGRTAKGIPIINLLQIEQDEYISTIIPIEEFTED”, the “soluble on expression in E. coli” value was “soluble”.
With “ISGQKEFEEKPLESKEKYQDLFNLIEQAVQIGEIVFDENGRSIDNIILDVNLAYEKHSGLRREQVIGRGFKEIFPIVEQRWLDRYGEVVRTGMGMHFEEYNASLDRWFEVFASPMGSNRFIAVFSDIT” the “soluble on expression in E. coli” value was “not soluble”.
In the case of “ITLKVAIYPYVPDPARFQAAVLDQWQRQEPGVKLEFTDWDSYSADPPDDLDVFVLDSIFLSHFVDAGYLLPFGSQDIDQAEDVLPFALQGAKRNGEVYGLPQILCTNLLFYRKGDLKIGQVDNIYELYKKIGTSHSEQIPPPQNKGLLINMAGGTTKASMYLEALIDVTGQYTEYDLLPPLDPLNDKVIRGLRLLINMAGEKPSQYVPEDGDAYVRASWFAQGSGRAFIGYSESMMRMGDYAEQVRFKPISSSAGQDIPLFYSDVVSVNSKTAHPELAKKLANVMASADTVEQALRPQADGQYPQYLLPARHQVYEALMQDYPIYSELAQIVNKPSNRVFRLGPEVRTWLKDAKQVLPEALGLTDVSSLAS”, the “soluble on expression in E. coli” value is reported as “soluble”.
For “IVRACRFMAERQIGALIVIERQQNIEDLIEGCIYLDAYITAELIITIFYPLTPLHDGAVVIRDDRIAFASCVLPLSKNPELPKKYGTRHRAAVGITEMSDAVAIVVSEETGEISVAVEGNI”, the “soluble on expression in E. coli” value was “soluble”.
With “KAFLEDMKKYAETFLEPWFKAPNKGTFQIVYKSRNNSHVNREEVIRELAGIVCTLNSENKVDLTNPQYTVVVEIIKAVCCLSVVK” the “soluble on expression in E. coli” value was “soluble”.
With “KARGNVGFVAGSSYGTGSVWTRNNEVVVLTASHVVGRANMATLKIGDAMLTLTFKKNGDFAEAVTTQSELPGNWPQLHFAQPTTGPASWCTATGDEEGLLSGEVCLAWTTSGDSGSAVVQGDAVVGVHTGSNTSGVAYVTTPSGKLLGADTVTLSSLSKHFTGPLTSIPKDIPDNIIADVDAVPRSLAMLIDGLSNRE” the “soluble on expression in E. coli” value was “soluble”.
With “KDFTWNTGVTYSMNKNKILTLADNAINPITREKFSISSLNMGGLGSTRFILKEGGSMGDIYSLMDLKRDANGAVYIDENNSVVTESLEANNYIKLGSVLPKGNLAWRNNFSWKNINVAFLVSARLGGVVFSRTQAVLDNFGVSEASAAARDKGYVSVNGNDRVNPEGWYSVVAGGTAVPQYYIYSATNIRLQEASIGYTIPRKWLGNVCDIKVSLIGRNLWMIYNKAPFDPESVASTDNFYQGIDYFMMPSLRNIGFNLSFKF” the “soluble on expression in E. coli” value was “not soluble”.
With “KDLKIVMLTDIHLGKNLHENFLDKLITKVNLQSPDMVVIVGDLIDTNPKDLKNYISKLNDFNSTYGTFYALGNHEYYHGINEVLDLLRKHTNMKILVNQNLDLGFIDIAGLGDLAGLDRGLYAPDLARIKVDLNTSKASILLTHQPKTALLYDLSDFDLVLSGHTHGGQIFPFMFLV” the “soluble on expression in E. coli” value was “not soluble”.
With “KEAMRMLMREELEKVLKTLSPREAMVLRMRYGLLDGKPKTLEEVGQYFNVTRERIRQIEVKALRKLRHPSRSKYLKSLLSLMDENEG” the “soluble on expression in E. coli” value was “soluble”.
In the case of “KFSPEFGIFMNIGASKIFTKTEVDQNEYSYLVDFRTIKGDIFLDFEAIFQLGVKNNINNNIVTGLTSLLEIGYSPYIISTKYEGESDSIYYIFTDRVILYSLVLGALEKIVFNNFSIGIGAGVLFPISGFAASNHPRNIISVMPSENLSIISPYNSKLDYAYIKKLFKVPVAPYIKITAEYAFKPYKIDNAEMDFVLGAYLSYNFGMQYDVSVLNSNIPKQGDNGLIIPGISSKDMFYKYDYSNLDFGVTFGVSFRALE”, the “soluble on expression in E. coli” value is reported as “not soluble”.
For “KGGVWRNTEDEILKAAVMKYGKNQWSRIASLLHRKSAKQCKARWYEWLDPSIKKTEW”, the “soluble on expression in E. coli” value was “soluble”.
For “KINDFSIKHGLTEKFVVSFAGTLGFSQDMEVIIRAANELKEYKDIVFIIVGNGVRLEESKKLAESLNLQNIRFIPSVPREIYPLVLHSSDVSLATLTKDVKTPVVPSKILSIMSAGIPVIAVMNLEGDAPKLVEKANAGFAIPAGDYKSLAEKILLLYKNPELRESLGRNGRRY”, the “soluble on expression in E. coli” value was “not soluble”.
With “KKGYEVLRDPHLNKGMAFTLEERQQLNIHGLLPPCFLGQDAQVYSILKNFERLTSDLDRYILLMSLQDRNEKLFYKVLTSDIERFMPIVYTPTVGLACQHYGLAFRRPRGLFITIHDRGHIATMLQSWPESVIKAIVVTDGERILGLGDLGCYGMGIPVGKLALYTACGGVKPHQCLPVMLDVGTDNETLLKDPLYIGLRHKRIRGQAYDDLLDEFMEAVTSRYGMNCLIQFEDFANANAFRLLHKYRNKYCTFNDDIQGTASVAVAGLLAALRITKNRLSDHTVLFQGAGEAALGIANLIVMAMQKEGVSKEEAIKRIWMVDSKGLIVKGRASLTPEKEHFAHEHCEMKNLEDIVKDIKPTVLIGVAAIGGAFTQQILQDMAAFNKRPIIFALSNPTSKAECTAEQLYKYTEGRGIFASGSPFDPVTLPSGQTLYPGQGNNSYVFPGVALGVISCGLKHIGDDVFLTTAEVIAQEVSEENLQEGRLYPPLVTIQQVSLKIAVRIAKEAYRNNTASTYPQPEDLEAFIRSQVYSTDYNCFVADSYTWPEEAMKVK” the “soluble on expression in E. coli” value was “soluble”.
With “KKLDLLITGVGGQGAILASDIIGKAAVISGIPIRAAETHGMAQRGGSVVNHIRLGSDLGSMIPKKGADIMLALEPMEAVRYLDFLKDGGVIIVNTQSIIPVTVTSGLSKYPEVQEILDALSEKYVVKAFNADELAHEAGSRLAMNVAMVGAVSGYLPISKEVLLESVKVLVPKKTIEINIRAFEMGREEVEE” the “soluble on expression in E. coli” value was “not soluble”.
For “KKLKKIVNSYINLGFEVTTKRETIQIDDLVPTQATVYEDELYGRAYELKRGLAEPIIVIKTNNNEKYILVDGHHRAVAACLSDIKELEAHVLEIDTDKKMGIEKTAEKQGLKSLSDIKILDEDKMNCSSAYKLKANILEM”, the “soluble on expression in E. coli” value was “not soluble”.
In the case of “KLTKSDLDILNSMKNVVDGIARMYGEHTEVVLHSLDAEAPEIIKIANGHVTERSEGAPITNLARMKLREGKDVSDSYLTKTSNGKTLHSITTIVRNPKNKPIGLLCINVDMDAPMQAFLKAMLPQQHTECCVGGAR”, the “soluble on expression in E. coli” value is reported as “not soluble”.
In the case of “KMKNWIKTVCFLLWTCVMCTACIDDDVEEGTVDLQTGESIPVFSVVMDDGQIITSETLKGEVSLIVFFHTGCPDCRKELPVLQKIYTDYGRRIRMVCISREESSAEIVRYWDENHLTLPYSAQENRTVYYQFAKSGIPRVYVIDKELVIRSVFTDNPLASYEDLAEAITASL”, the “soluble on expression in E. coli” value is reported as “not soluble”.
With “KNNINKTRMNDLNREETRLKTFTDWPLDWLDKRQLAQTGMYFTHAGDKVKCFFCGVEIGSWEQEDQPVPEHQRWSPNCPLLRRRTTNNVPINAEALDRILPPISYDICGANDSTLE” the “soluble on expression in E. coli” value was “soluble”.
With “KPAKPAAKSIVTLDVKPWDDETNLEEMVANVKAIEMEGLTWGAHQFIPIGFGIKKLQINCVVEDDKVSLDDLQQSIEEDEDHVQSTDIAAMQAL” the “soluble on expression in E. coli” value was “soluble”.
With “KQLEKDLLASAETLQRERHQIANALESEIKTELCDLYMDKADFKVVFTKGKFNRDGNEQVEFYISTNPGEGFKPLVKVASGGELSRLMLAIKSAFARKEDKTSIVFDEVDTGVSGRVAQAIAQKIHKIGSYGQVLAISHLPQVIAIADYQFFISKESDNETTVSRVRLLTPEERVEEIAKMLAGDNLTDAALSQARALLKVDEPV” the “soluble on expression in E. coli” value was “not soluble”.
For “KRRIRQLELQVRMLEADKERLERELSRLRSEMSRLRQPPAFAGSVIEVLDDDRAIVQNYNGPRFVVRIAPWIDKSKLRPGTRVALDQRTMAIIEILPASKDPAVLGFEVVERPN”, the “soluble on expression in E. coli” value was “not soluble”.
In the case of “KSIRLAKEKESQADYISTYVEWQYIDKNITQCFDKMTNMKLEVAWKAKKKDTVVQIHNQDFTVDLSTNTATAPQGQTFTVQRLVKA”, the “soluble on expression in E. coli” value is reported as “soluble”.
